Assay results reported in patent US20250313634A1 (WUXI BIOLOGICS SHANGHAI, published 2025).
Each block holds one binder with its values, some of them ahead of it.

How the values were obtained:
[1] = biological target: T1, full-length human PD-L1 expressed on CHO cells (human, UniProt Q9NZQ7 19-290); experiment: FACS competition: blocking of mouse Fc-tagged human PD-1 binding to CHO cells expressing human PD-L1
T1 construct: whole, on cells; also called CHO-K1 cells expressing human PD-L1; PD-L1 transfected CHO cells
T1 sequence (Q9NZQ7 19-290): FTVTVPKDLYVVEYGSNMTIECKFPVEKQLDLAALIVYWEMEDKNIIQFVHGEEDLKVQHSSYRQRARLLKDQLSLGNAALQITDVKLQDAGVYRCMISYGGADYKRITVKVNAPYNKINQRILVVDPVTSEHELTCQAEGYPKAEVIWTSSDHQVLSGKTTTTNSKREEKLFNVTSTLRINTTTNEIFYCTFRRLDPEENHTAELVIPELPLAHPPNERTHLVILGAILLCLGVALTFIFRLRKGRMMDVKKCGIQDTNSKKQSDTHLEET
Protocol: (§1) 3.1 Competition assay by FACS: to examine whether the fully human antibodies can block the binding of PD-L1 to PD-1, the CHO-K1 cells expressing human PD-L1 were incubated with various concentrations of the fully human antibodies at 4° C. for 1 hour. The unbound antibodies were washed away, and then the mouse Fc-tagged human PD-1 was added to the cells. The binding of human PD-1 to PD-L1 expressing cell was detected by using FITC-conjugated goat anti-mouse IgG, followed by the analysis using a BD Biosciences FACSCanto II and FlowJo Version software.
(§2) Then the mouse Fc-tagged human PD-1 was added to the cells. The binding of human PD-1 to PD-L1 expressing cell was detected by using FITC-conjugated goat anti-mouse IgG, followed by the FACS analysis.

[2] = biological target: T1, full-length human PD-L1 expressed on …; experiment: FACS competition on CHO cells expressing human PD-L1; competitor mouse Fc-tagged human PD-1
Protocol: as §1, §2

[3] = biological target: T2, murine PD-L1 (mouse, UniProt Q9EP73 19-238, limits assumed); experiment: ELISA, murine PD-L1 coated on the plate, goat anti-human IgG Fc-HRP; antibody concentration not shown
T2 construct: also called mouse PD-L1 (coated on ELISA plates)
T2 sequence (Q9EP73 19-238 limits assumed): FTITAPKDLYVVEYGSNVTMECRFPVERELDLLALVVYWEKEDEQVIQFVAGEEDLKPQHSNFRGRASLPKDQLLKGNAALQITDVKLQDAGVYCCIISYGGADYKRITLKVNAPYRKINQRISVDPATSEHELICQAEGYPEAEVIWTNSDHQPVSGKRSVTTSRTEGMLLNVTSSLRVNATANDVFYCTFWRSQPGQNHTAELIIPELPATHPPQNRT
Protocol: 3.7 Cross-species binding assay: the cross-reactivity of the Ab to cynomolgus and murine PD-L1 was measured by ELISA. Human, cyno and mouse PD-L1 were coated on ELISA plates, respectively. After blocking, fully human antibodies were added into the plate and incubated at room temperature for at least 2 hours. The binding of the antibodies to the coated antigens was detected by using goat anti-human IgG Fc-HRP. The color reaction was developed using TMB substrate and stopped by 2M HCl. The ELISA plates were analyzed at 450 nm using a Molecular Device M5e microplate reader.

[4] = biological target: T3, PD-L2 expressed on transfected CHO cells (Homo sapiens (Human), UniProt Q9BQ51 20-273); experiment: FACS on PD-L2 transfected CHO-K1 cells, single bar, antibody concentration not shown
T3 construct: also called PD-L2 of PD-1 ligand family
T3 sequence: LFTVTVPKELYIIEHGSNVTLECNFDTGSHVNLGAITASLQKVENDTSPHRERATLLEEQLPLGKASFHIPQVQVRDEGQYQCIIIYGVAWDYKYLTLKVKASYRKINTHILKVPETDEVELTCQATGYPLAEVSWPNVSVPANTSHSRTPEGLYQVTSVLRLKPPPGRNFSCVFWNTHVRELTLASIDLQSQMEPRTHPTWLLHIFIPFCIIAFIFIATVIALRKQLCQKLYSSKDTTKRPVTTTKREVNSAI
Protocol: 3.8 Cross-family binding assay by FACS: to examine the cross-family binding activity of the fully human antibodies, cells lines that express PD-L2 were stained with the fully human antibodies, followed by 2nd antibody staining with FITC conjugated goat anti-human IgG Fc. PD-L1 expressing cells were used as positive control. Corresponding parental cell lines were used as negative controls. The stained cells were analyzed by using a BD Biosciences FACSCanto II and FlowJo Version software.
CHO cells transfected with PD-L1 or PD-L2 were stained with fully human PD-L1 antibodies and analysis by FACS.

[5] = biological target: T1, full-length human PD-L1 expressed on …; experiment: FACS on CHO cells transfected with full-length human PD-L1
[6] = biological target: T4, recombinant human PD-L1 (human, UniProt Q9NZQ7 19-238, limits assumed); experiment: surface plasmon resonance per legend paragraph 39 and paragraph 188; column Best fit-KD, mol/L from the legend
T4 construct: Used for the SPR analyte (3.2) and for the plate-coated human PD-L1 of the cross-species ELISA (3.7); also called human PD-L1 (SPR analyte); Human PD-L1 coated on ELISA plates
T4 sequence (Q9NZQ7 19-238 limits assumed): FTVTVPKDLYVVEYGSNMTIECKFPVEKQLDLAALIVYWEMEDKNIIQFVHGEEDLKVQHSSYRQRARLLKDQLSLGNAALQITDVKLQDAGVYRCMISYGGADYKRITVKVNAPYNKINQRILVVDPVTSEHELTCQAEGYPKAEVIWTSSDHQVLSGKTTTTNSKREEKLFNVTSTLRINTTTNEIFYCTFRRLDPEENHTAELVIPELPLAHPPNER
From the text: 3.2 Affinity test by surface plasmon resonance (SPR): Antibodies were characterized for affinity and binding kinetics to PD-L1 by SPR assay using ProteOn XPR36 (Bio-Rad). Protein A protein (Sigma) was immobilized to a GLM sensor chip (Bio-Rad) through amine coupling. Purified antibodies were flowed over the sensor chip and captured by the Protein A. The chip was rotated […] and washed with running buffer (1×PBS/0.01% Tween20, Bio-Rad) until the baseline is stable. Five concentrations of human PD-L1 and running buffer were flowed against the antibody flow cell at a flow rate 100 μL/min for an association phase of 240s, followed by 600s dissociation. The chip was regenerated with pH 1.7 H₃PO₄ after each run. The association and dissociation curve was fit to a 1:1 Langmiur binding model using ProteOn software.

IC50 (read off the curve) [1]: ~2 nM | IC50 [2]: ~10 nM | binding result [3]: no binding | binding result [4]: no binding | EC50 (read off the curve) [5]: ~1 nM | Kd [6]: 0.226 nM
B1: 1.20.15 (antibody, V domains shown)
VH: QLQLQESGPGLVKPSETLSLTCTVSGGSISSISNYWGWIRQPPGKGLEWIGSIYYSGSTNYNPPLKSRVTISVDTTKNQFSLKLSSVTAADTAVYYCARLTYYFDYWGQGMLVTVSS
VL: SYDLTQPPSVSVSPGQTASITCSGDKLGDKYACWYQQKPGQSPLLVIQQDSKRPSGIPARFSGSNSGNTATLTISGTQAMDEADYFCQTWDSSTVVFGGGTKLTVL
notes: Fully human monoclonal antibody with a human constant region of IgG4 isotype; also called fully human PD-L1 antibody 1.20.15; 1.20.15-VH(30712)

binding result [4]: no binding | Kd [6]: 0.478 nM
B2: 1.4.1 (antibody, V domains shown)
VH: QLQLQESGPGLVKPSESLSLTCTVSGGSISIRTYYWGWIRQPPGTGLEWMGYIYYSGSTRYNPSLKSRVTISVDTSKNQFSLKLSSVTAADTAVYYCARLSYFFDYWGQGTLVTVSS
VL: SYELTQPPSVSVSPGQTASITCSGDKLGDKYACWYQQKPGQSPVMVIYQDTKRPSGIPERFSGSNSGNTATLTISGTLAMDEADYYCQAWDSGTVIFGGGTKLTVL
notes: Fully human monoclonal antibody with a human constant region of IgG4 isotype; also called fully human PD-L1 antibody 1.4.1; 1.4.1-VH(30511)

binding result [3]: no binding | binding result [4]: no binding
B3: 1.46.11 (antibody, V domains shown)
VH: EVQLLESGGGLVQPGGSLRLSCAASGFTFSSYAMSWVRQAPGKGLEWVSGFSGSGFITYYADSVKGRFTISRDNSKNTLYLQMNSLRAEDTAVYYCAMPPRGYNYGPFDYWGQGTLVTVSS
VL: SYVLTQPPSVSVAPGQTARITCGGNNIGSKSVHWYQQKPGQAPVLVVYDDSDRPSGIPERFSGSNSGNTATLTISRVEAGDEADYYCQVWDSSSDHVVFGGGTKLTVL
notes: Fully human monoclonal antibody with a human constant region of IgG4 isotype
